# Laboratory results as given in patent US8029979B2, “Method for determining the substrate specificity of an enzyme” (JPT Peptide Technologies GmbH, priority 2001, dated 2011).
# Target: T1, protein kinase A (Bos taurus, UniProt P00517)
# T1 construct: purchased Sigma P26452 as printed
# Test: Incubation of modified glass surface (960 spots) with protein kinase A (FIG. 7, Example 27)
# Format: biochemical
# Conditions: aldehyde-functionalised glass, amino-oxy linkage, protein kinase A 10 U/mL, 30 min at 25° C.
# Method: FIG. 7. A glass surface modified with the peptide Dpr(Aoa)-Leu-Arg-Arg-Ala-Ser-Leu-Gly-NH2 (see Example 22) was first pre-incubated for 10 minutes using 10 ml of 100 μM ATP solution in 50 mM of sodium phosphate buffer pH 7.5. […] After incubation for 30 min at 25° C. the phosphorylation of the corresponding peptides was detected using a FUJIFILM PhosphorImager (see Example 14). […] It is furthermore clear that the resolution of the PhosphorImager used here is sufficient to analyse more than 950 measurement points per biochip.
# A glass surface modified with the peptide Dpr(Aoa)-Leu-Arg-Arg-Ala-Ser-Leu-Gly-NH2 (see Example 22) was incubated with 10 mL of 100 μM ATP in kinase buffer (50 mM tris-HCl, 150 mM NaCl, 30 mM MgCl2, 4 mM DTT, 2 mM EGTA, pH 7.5) for 10 minutes at room temperature. The glass surface was dried and a second unmodified glass surface of the same dimensions was then placed on the peptide-modified glass surface. […] Incubation was then carried out for 30 min at room temperature in an almost water-saturated atmosphere. […]
# After drying the glass surface the quantity of radioactive phosphate incorporated in the glass-surface-bound peptides was determined using a PhosphorImager system (FLA-3000, FUJIFILM) (see FIG. 7).
substance,measurement,value
Dpr(Aoa)-Leu-Arg-Arg-Ala-Ser-Leu-Gly-NH2 ({Dpr(Aoa)}-LRRASLG-NH2),linking of the immobilised kinase substrate tolerated by protein kinase A,tolerated by the protein kinase A
